In patent US20230227559A1 (INSTITUT PASTEUR, published 2023):
Numbering of substitutions follows the chain as printed. Names may count otherwise.

T1: hFcgRIIB (human, UniProt P31994)
T1 construct: on the cell surface of CHO transfectants, FLAG tagged; Named only on the sheet; one member of the group m10; also called hFcγRIIB; CD32B
T1 sequence (receptor chain, looked up): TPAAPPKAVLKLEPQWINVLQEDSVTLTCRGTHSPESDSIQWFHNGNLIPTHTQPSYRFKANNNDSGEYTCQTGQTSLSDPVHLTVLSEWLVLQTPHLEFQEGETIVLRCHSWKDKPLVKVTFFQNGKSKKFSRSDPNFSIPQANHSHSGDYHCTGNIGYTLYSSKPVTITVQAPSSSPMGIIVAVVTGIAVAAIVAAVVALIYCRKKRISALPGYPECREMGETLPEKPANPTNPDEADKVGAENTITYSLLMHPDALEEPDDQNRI

T2: hFcgRIIA H131 (human, UniProt P12318)
T2 construct: on the cell surface of CHO transfectants, FLAG tagged; Named only on the sheet; one member of the group m10; also called hFcγRIIA H131; CD32A H131
T2 sequence (receptor chain, looked up): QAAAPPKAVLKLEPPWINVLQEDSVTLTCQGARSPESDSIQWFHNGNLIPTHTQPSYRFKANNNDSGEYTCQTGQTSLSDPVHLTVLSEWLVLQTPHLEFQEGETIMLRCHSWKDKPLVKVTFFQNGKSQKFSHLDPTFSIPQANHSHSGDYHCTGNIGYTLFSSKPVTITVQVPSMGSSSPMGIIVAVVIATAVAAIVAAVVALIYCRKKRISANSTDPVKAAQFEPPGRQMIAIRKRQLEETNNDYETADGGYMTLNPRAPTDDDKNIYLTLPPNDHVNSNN

T3: hFcgRIIA R131 (human, UniProt P12318)
T3 construct: on the cell surface of CHO transfectants, FLAG tagged; Named only on the sheet; one member of the group m10; also called hFcγRIIA R131; CD32A R131
T3 sequence (receptor chain, looked up): T2 sequence (receptor chain, looked up) with H134R

B1: Chimeric 3G4 hIgG1 (chimeric mouse-human IgG1 kappa anti-hFcγRIII mAb, clone 3G4) (antibody)
heavy: not shown
light: DIVLTQSPSSISASLGDRITITCQATQDIIKNLNWYQQKPGKPPSFLIYYATEVAEGVPSRFSGSGSGSDYSLTISNLESEDFADYYCLQFYEFPYTFGGGTKLEIKRTVAAPSVFIFPPSDEQLKSGTASVVCLLNNFYPREAKVQWKVDNALQSGNSQESVTEQDSKDSTYSLSSTLTLSKADYEKHKVYACEVTHQGLSSPVTKSFNRGEC
notes: also called mouse-human 3G4; 3G4 mouse-human chimeric monoclonal antibody
B2: Chimeric 3G4 hIgG1 N297A format (chimeric modified mouse-human antibody 3G4NA) (antibody)
heavy: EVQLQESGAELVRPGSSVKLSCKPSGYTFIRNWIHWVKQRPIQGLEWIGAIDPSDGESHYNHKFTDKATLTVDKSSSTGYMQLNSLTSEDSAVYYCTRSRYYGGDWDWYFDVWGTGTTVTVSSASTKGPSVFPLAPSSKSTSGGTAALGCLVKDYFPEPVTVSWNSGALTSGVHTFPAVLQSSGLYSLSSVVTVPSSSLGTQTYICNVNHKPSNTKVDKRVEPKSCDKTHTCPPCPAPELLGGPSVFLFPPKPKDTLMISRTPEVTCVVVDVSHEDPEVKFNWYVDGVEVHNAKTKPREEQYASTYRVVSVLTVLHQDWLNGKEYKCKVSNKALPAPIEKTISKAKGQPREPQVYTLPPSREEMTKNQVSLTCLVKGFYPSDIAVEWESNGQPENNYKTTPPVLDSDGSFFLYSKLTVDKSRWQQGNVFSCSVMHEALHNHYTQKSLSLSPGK
light: B1 light
notes: also called 3G4N297A; mAb 3G4 N297A

What was measured:
[1] = biological target: T4, His-tagged ectodomains of hFcγRIIIA variant V158 (human, UniProt P08637 19-208); experiment: SPR (ProteON), His-tagged hFcγRIIIA V158 ectodomains on chip, mAb injected
T4 construct: also called human CD16A V158 ectodomains; hFcγRIIIA (V158 variant); not shown: His tag
Protocol: Surface Plasmon Resonance analysis. His-tagged ectodomains of hFcγRIIIA variant V158 were covalently immobilized on a His-tag capture sensor chip for a ProteON instrument (BioRad). A range of dilutions of anti-hFcγRIII mAbs were injected onto the chip. Background binding was measured on an empty HTE sensor chip channel and subtracted from the binding values observed on coated channels. The resulting sensorgrams were fitted using a “1:1 binding with mass transfer” model, and association (Kₒₙ), dissociation (Koff) constants and KD were calculated as the […] using BIAevaluation 4.1 software.
The affinity of the antibodies of the invention for the hFcγRIIIA (V158 variant) has been assessed by SPR as detailed above.

[2] = biological target: T5, hFcγRI (FLAG tagged, expressed on CHO cells) (human, UniProt P12314 16-374); experiment: FACS on CHO cells expressing FLAG tagged hFcγRI; mAb at 1 µg/ml, PE-labelled F(ab')2 donkey anti-human IgG at 5 µg/ml
T5 construct: whole, on cells; also called CD64
Protocol: (§1) Specificity. A collection of Chinese Hamster Ovarian (CHO) cells expressing FLAG tagged human FcγR (Bruhns P. et al, 2009) was used to analyze the specificity of the antibody against the hFcγR family. Cells were incubated on ice for 30 min with mAbs at 1 μg/ml, washed 3 time in PBS containing 0.5% BSA and 2 mM EDTA (MACS buffer) and then incubated on ice for 30 min with 5 μg/ml PE-labelled F(ab′)₂ Donkey Anti-Human IgG (Jackson ImmunoResearch). Data acquisition was performed on a MACSQuant flow cytometer (Miltenyi Biotec), and data analyzed using the Flowjo Software (FlowJo).
(§2) The specificity of the chimeric modified antibody 3G4NA towards the members of the hFcγR family has been assessed as exposed in the Material & Methods part, in CHO cells expressing FLAG tagged human FcγR. The cells were incubated with 3G4NA mAbs at 1 μg/ml, washed and then incubated on ice for 30 min with 5 μg/ml PE-labelled F(ab′)₂ Donkey Anti-Human IgG. The FACS results are disclosed on FIG. 1.

hFcgRIIB = biological target: T1, hFcgRIIB; experiment: FACS on CHO cells expressing FLAG tagged hFcγRIIB; mAb at 1 µg/ml, PE-labelled F(ab')2 donkey anti-human IgG at 5 µg/ml
Protocol: as §1, §2

hFcgRIIA H131 = biological target: T2, hFcgRIIA H131; experiment: FACS on CHO cells expressing FLAG tagged hFcγRIIA H131; mAb at 1 µg/ml, PE-labelled F(ab')2 donkey anti-human IgG at 5 µg/ml
Protocol: as §1, §2

hFcgRIIA R131 = biological target: T3, hFcgRIIA R131; experiment: FACS on CHO cells expressing FLAG tagged hFcγRIIA R131; mAb at 1 µg/ml, PE-labelled F(ab')2 donkey anti-human IgG at 5 µg/ml
Protocol: as §1, §2

hFcgRIIIA F176 = biological target: T6, hFcgRIIIA F176 (human, UniProt P08637); experiment: FACS on CHO cells expressing FLAG tagged hFcγRIIIA F176; mAb at 1 µg/ml, PE-labelled F(ab')2 donkey anti-human IgG at 5 µg/ml
T6 construct: on the cell surface of CHO transfectants, FLAG tagged; also called hFcγRIIIA F158; CD16A F158
Protocol: as §1, §2

[3] = biological target: T7, hFcγRIIIA V158 (FLAG tagged, expressed on CHO cells) (human, UniProt P08637 17-254); experiment: FACS on CHO cells expressing FLAG tagged hFcγRIIIA V176 (V158 in the text); mAb at 1 µg/ml, PE-labelled F(ab')2 donkey anti-human IgG at 5 µg/ml
T7 construct: whole, on cells; also called CD16A V158
Protocol: as §1, §2

T4 sequence (P08637 other isoform, or with tags, fused parts or gaps mutant): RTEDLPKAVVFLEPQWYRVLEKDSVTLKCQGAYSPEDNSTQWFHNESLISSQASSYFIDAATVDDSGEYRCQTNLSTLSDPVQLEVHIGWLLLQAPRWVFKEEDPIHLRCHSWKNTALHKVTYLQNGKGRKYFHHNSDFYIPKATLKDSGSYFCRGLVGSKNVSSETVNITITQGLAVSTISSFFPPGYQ
T6 sequence (P08637 17-254 limits assumed): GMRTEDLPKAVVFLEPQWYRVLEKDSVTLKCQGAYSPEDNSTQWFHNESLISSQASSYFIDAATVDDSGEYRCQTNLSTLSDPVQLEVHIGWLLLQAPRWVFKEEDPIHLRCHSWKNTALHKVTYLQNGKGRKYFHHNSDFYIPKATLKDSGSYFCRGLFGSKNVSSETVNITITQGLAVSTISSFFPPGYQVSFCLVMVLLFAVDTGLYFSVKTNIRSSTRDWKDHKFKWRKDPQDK
T5 sequence (P12314 16-374): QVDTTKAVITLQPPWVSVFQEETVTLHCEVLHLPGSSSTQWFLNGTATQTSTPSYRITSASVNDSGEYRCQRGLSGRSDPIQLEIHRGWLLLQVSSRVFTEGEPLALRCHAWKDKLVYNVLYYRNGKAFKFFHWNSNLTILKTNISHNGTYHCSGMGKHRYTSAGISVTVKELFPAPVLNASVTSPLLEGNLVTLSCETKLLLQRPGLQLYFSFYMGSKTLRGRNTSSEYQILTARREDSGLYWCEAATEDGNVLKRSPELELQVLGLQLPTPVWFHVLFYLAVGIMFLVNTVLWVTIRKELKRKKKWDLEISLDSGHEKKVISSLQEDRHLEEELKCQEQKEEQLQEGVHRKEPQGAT
T7 sequence (P08637 17-254 F176V limits assumed): as the sequence (P08637 17-254 limits assumed) above, with F160V counted along it

| Binder | Kd [1] | koff [1] | kon [1] | binding result [2] | binding result (hFcgRIIB) | binding result (hFcgRIIA H131) | binding result (hFcgRIIA R131) | binding result (hFcgRIIIA F176) | binding result [3] |
| --- | --- | --- | --- | --- | --- | --- | --- | --- | --- |
| B1 | 7.9 nM | 0.001 s⁻¹ | 130000 M⁻¹ s⁻¹ |  |  |  |  |  |  |
| B2 | 16 nM | 0.00034 s⁻¹ | 19000 M⁻¹ s⁻¹ | binds | no binding (tested: 1 µg/ml) | no binding (tested: 1 µg/ml) | no binding (tested: 1 µg/ml) | binds | binds |
